# Test results as given in US20200247855A1, “THERAPY AND DIAGNOSTICS” (OXFORD UNIVERSITY INNOVATION LIMITED, priority 2017, published 2020).
# T1: CCL3_HUMAN (Homo sapiens, UniProt P10147)
# T1 sequence (P10147 24-92): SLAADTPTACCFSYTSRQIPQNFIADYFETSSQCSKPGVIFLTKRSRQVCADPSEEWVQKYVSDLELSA
# T2: CCL5_HUMAN (Homo sapiens, UniProt P13501)
# T2 sequence (P13501 24-91): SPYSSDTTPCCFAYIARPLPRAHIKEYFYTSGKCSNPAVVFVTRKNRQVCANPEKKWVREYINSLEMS
# T3: CCL17_HUMAN (Homo sapiens, UniProt Q92583)
# T3 sequence (Q92583 24-94): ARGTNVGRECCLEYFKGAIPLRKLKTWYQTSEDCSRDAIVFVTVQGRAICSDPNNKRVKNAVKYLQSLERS
# T4: CCL19_HUMAN (Homo sapiens, UniProt Q99731)
# T4 sequence (Q99731 22-98): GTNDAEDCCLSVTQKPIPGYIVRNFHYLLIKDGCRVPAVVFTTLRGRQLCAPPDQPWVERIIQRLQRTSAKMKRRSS
# T5: CCL1_HUMAN (Homo sapiens, UniProt P22362)
# T5 sequence (P22362 24-96): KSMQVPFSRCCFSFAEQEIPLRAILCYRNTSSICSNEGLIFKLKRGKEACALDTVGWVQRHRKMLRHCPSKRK
# T6: CXCL8_HUMAN (Homo sapiens, UniProt P10145)
# T6 sequence (P10145 21-99): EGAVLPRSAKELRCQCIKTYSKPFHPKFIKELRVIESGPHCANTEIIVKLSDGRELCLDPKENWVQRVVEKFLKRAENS
# T7: CCL8_HUMAN (Homo sapiens, UniProt P80075)
# T7 sequence (P80075 24-99): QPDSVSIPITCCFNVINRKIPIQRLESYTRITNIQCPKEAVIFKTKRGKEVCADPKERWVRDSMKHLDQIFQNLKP
# B1: P1005_AMBMA: tick CKBP, Amblyomma maculatum (protein, listed as Amblyomma maculatum)
# chain: EKDTPKNIPGCGDTGTTAAPPADNPKHFAVYTDKHGCTIKVIGTWMTKEDHSRLPVSLRRVRASSGRVMLPASCQKICNDTVKNFPEGTPCRLVTGDPIKGKNHIKDGCIRGYCSSGVCVSDKRNISCYVPPN
# B2: P1030_AMBPA: tick CKBP, Amblyomma parvum (protein, listed as Amblyomma parvum)
# chain: GPPSIPGNESIPGCGDAGTTTAPEDNPKHYGTLTDKKGCTLPIIGTWMTAVDHQHLQGTRGERRGPTGKVNLPASCRKNCHGRQEILRDGIPCRKVVGNPKGSKKHLKSGCLRGKCLAGQCVNDGRRISCYVPRNITDTEPTPGLLAE
# How the values were obtained:
# Experiment in all cases: Yeast surface display (YSD) FACS binding
# CCL3_HUMAN = target: T1, CCL3_HUMAN
# Procedure, shortened: (§1)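 Yeast clones displaying tick peptides were re-tested by FACS with labelled chemokine. Binding = % of peptide-expressing yeast above a background threshold set with streptavidin-Alexa647 alone; the mean percent shift was used where several clones were isolated. Confirmed binding ("YES") required >3-fold over background mean fluorescence intensity.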
# CCL5_HUMAN = target: T2, CCL5_HUMAN
# Procedure, shortened: as §1
# CCL11_HUMAN = CCL11_HUMAN (Homo sapiens, UniProt P51671)
# Procedure, shortened: as §1
# CCL17_HUMAN = target: T3, CCL17_HUMAN
# Procedure, shortened: as §1
# CCL19_HUMAN = target: T4, CCL19_HUMAN
# Procedure, shortened: as §1
# CCL1_HUMAN = target: T5, CCL1_HUMAN
# Procedure, shortened: as §1
# CXCL8_HUMAN = target: T6, CXCL8_HUMAN; parameters: label (chemical); details: yeast surface display
# Procedure, shortened: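 Yeast clones displaying tick peptides were re-tested by FACS with labelled chemokine detected by streptavidin-Alexa conjugate. Binding was scored as % of peptide-expressing cells above a background set with streptavidin-Alexa alone, averaged over independent clones. In the screen tables, >3-fold over background mean fluorescence intensity was scored as binding.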
# CCL8_HUMAN = target: T7, CCL8_HUMAN
# Procedure, shortened: as §1
# CCL20_HUMAN = CCL20_HUMAN (Homo sapiens, UniProt P78556)
# Procedure, shortened: as §1
# CCL11_HUMAN, sequence (P51671 24-97): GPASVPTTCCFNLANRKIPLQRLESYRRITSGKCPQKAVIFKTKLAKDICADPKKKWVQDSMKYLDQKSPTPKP
# CCL20_HUMAN, sequence (P78556 27-96): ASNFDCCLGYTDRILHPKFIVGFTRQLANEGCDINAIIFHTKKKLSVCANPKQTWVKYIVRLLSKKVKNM
Molecule,"Binding to CCL3_HUMAN, YSD (CCL3_HUMAN)","Binding to CCL5_HUMAN, YSD (CCL5_HUMAN)","Binding to CCL11_HUMAN, YSD (CCL11_HUMAN)","Binding to CCL17_HUMAN, YSD (CCL17_HUMAN)","Binding to CCL19_HUMAN, YSD (CCL19_HUMAN)","Binding to CCL1_HUMAN, YSD (CCL1_HUMAN)","Binding to CXCL8_HUMAN, YSD (CXCL8_HUMAN)","Binding to CCL8_HUMAN, YSD (CCL8_HUMAN)","Binding to CCL20_HUMAN, YSD (CCL20_HUMAN)"
B1,YES (An arbitrary threshold of >3 fold over background mean fluorescence intensity was chosen to describe confirmed re-tests. Where binding was detected data are indicated as “YES”),YES (An arbitrary threshold of >3 fold over background mean fluorescence intensity was chosen to describe confirmed re-tests. Where binding was detected data are indicated as “YES”),YES (An arbitrary threshold of >3 fold over background mean fluorescence intensity was chosen to describe confirmed re-tests. Where binding was detected data are indicated as “YES”),YES (An arbitrary threshold of >3 fold over background mean fluorescence intensity was chosen to describe confirmed re-tests. Where binding was detected data are indicated as “YES”),YES (An arbitrary threshold of >3 fold over background mean fluorescence intensity was chosen to describe confirmed re-tests. Where binding was detected data are indicated as “YES”),YES (An arbitrary threshold of >3 fold over background mean fluorescence intensity was chosen to describe confirmed re-tests. Where binding was detected data are indicated as “YES”),–,–,–
B2,YES (An arbitrary threshold of >3 fold over background mean fluorescence intensity was chosen to describe confirmed re-tests. Where binding was detected data are indicated as “YES”),YES (An arbitrary threshold of >3 fold over background mean fluorescence intensity was chosen to describe confirmed re-tests. Where binding was detected data are indicated as “YES”),YES (An arbitrary threshold of >3 fold over background mean fluorescence intensity was chosen to describe confirmed re-tests. Where binding was detected data are indicated as “YES”),YES (An arbitrary threshold of >3 fold over background mean fluorescence intensity was chosen to describe confirmed re-tests. Where binding was detected data are indicated as “YES”),–,–,YES (An arbitrary threshold of >3 fold over background mean fluorescence intensity was chosen to describe confirmed re-tests. Where binding was detected data are indicated as “YES”),YES (An arbitrary threshold of >3 fold over background mean fluorescence intensity was chosen to describe confirmed re-tests. Where binding was detected data are indicated as “YES”),YES (An arbitrary threshold of >3 fold over background mean fluorescence intensity was chosen to describe confirmed re-tests. Where binding was detected data are indicated as “YES”)
